According to US8648041 (Novo Nordisk, dated 2014):
Numbered stars: 1 amine (or outer) side, 2 acyl side, 3 side chain; on linkers, the order of the positions; unused ones are H or OH. Square brackets hold non-standard residues; d marks the D form. Side chains are listed from the residue outwards. Ends that are not written are not given here. * marks the point of attachment. 9‑(4-carboxyphenoxy)nonanoyl = O=C(O)c1ccc(OCCCCCCCCC(=O)*)cc1; 8‑(4-carboxyphenoxy)octanoyl = O=C(O)c1ccc(OCCCCCCCC(=O)*)cc1; Malonyl(2,2-Me2,histaminyl) = CC(C)(C(=O)NCCc1cnc[nH]1)C(=O)*; Decanoyl(10-(4-HOOC-PhO)) = O=C(O)c1ccc(OCCCCCCCCCC(=O)*)cc1; γGlu = O=C(O)[C@H](CCC(=O)[*:2])N[*:1]; C14 diacid = O=C(O)CCCCCCCCCCCCC(=O)*; C12 diacid = O=C(O)CCCCCCCCCCC(=O)*; AEEA = NCCOCCOCC(=O)O; Aib = CC(C)(N)C(=O)O

What was measured:
human GLP-1 receptor [1] = target: T1, human GLP-1 receptor (human, UniProt P43220 24-463); assay: SPA, displacement of 125I-GLP-1(7-36)NH2 from membranes with human GLP-1 receptor, 0.005% HSA
T1 construct: whole, on cells; Used as membrane preparations of the transfected hamster (BHK) cell line, not as whole cells; also called hGLP-1/BHK 467-12A membranes
Excerpt: (§1) A shift in the binding affinity, $IC50$, is an indication that the peptide in question binds to albumin, and thereby a prediction of a potential protracted pharmacokinetic profile of the peptide in question in animal models. Conditions Species (in vitro): Hamster Biological End Point: Receptor Binding Assay Method: SPA Receptor: GLP-1 receptor Cell Line: BHK tk-ts13 Cell Culture and Membrane Purification A stable transfected cell line and a high expressing clone were selected for screening. The cells were grown at 5% CO_2 in DMEM, 10% FCS, 1% Pen/Strep (Penicillin/Streptomycin) and 1.0 mg/ml of the selection marker G418.
(§2) 25 ul (micro liter) of test compounds were added to Optiplate. HSA ("high albumin" experiment containing 2% HSA), or buffer ("low albumin" experiment containing 0.005% HSA), was added (50 ul). 5-10 ug protein/sample was added (50 ul) corresponding to 0.1-0.2 mg protein/ml (to be preferably optimised for each membrane preparation). SPA-particles (Wheatgerm agglutinin SPA beads, Perkin Elmer, #RPNQ0001) were added in an amount of 0.5 mg/well (50 ul). […] The plates were sealed with PlateSealer and incubated for 120 minutes at 30° C. while shaking. The plates were centrifuged (1500 rpm, 10 min) and counted in Topcounter. Assay Buffer: 50 mM HEPES 5 mM EGTA 5 mM MgCl2 0.005% Tween™ 20 pH 7.4 HSA was SIGMA A1653.

human GLP-1 receptor [2] = target: T1, human GLP-1 receptor; assay: SPA, displacement of 125I-GLP-1(7-36)NH2 from membranes with human GLP-1 receptor, 2.0% HSA
Excerpt: as §1, §2

Binder	IC50 (human GLP-1 receptor [1]) [nM]	IC50 (human GLP-1 receptor [2]) [nM]
HAEGTFTSDVSSYLEGQAAK([AEEA-AEEA-γGlu-9‑(4-carboxyphenoxy)nonanoyl])EFIAWLVRGRK([AEEA-AEEA-γGlu-9‑(4-carboxyphenoxy)nonanoyl])	< 600	≤ 1000
HAEGTFTSDVSSYLEGQAAK([AEEA-AEEA-γGlu-C14 diacid])EFIAWLVRGRK([AEEA-AEEA-γGlu-C14 diacid])	< 600	≤ 1000
HAEGTFTSDVSSYLEGQAAK([AEEA-AEEA-γGlu-Decanoyl(10-(4-HOOC-PhO))])EFIAWLVRGRK([AEEA-AEEA-γGlu-Decanoyl(10-(4-HOOC-PhO))])	< 600	≤ 1000
HAEGTFTSDVSSYLEGQAAK([AEEA-AEEA-γGlu-Decanoyl(10-(4-HOOC-PhO))])EFIAWLVRGGK([AEEA-AEEA-γGlu-Decanoyl(10-(4-HOOC-PhO))])	< 600	≤ 1000
HAEGTFTSDVSSYLEGQAAK([AEEA-AEEA-γGlu-C12 diacid])EFIAHLVQGRK([AEEA-AEEA-γGlu-C12 diacid]) (also called Chem. 54)	< 600	≤ 1000
HAQGTFTSDVSSYLEGQAAK([AEEA-AEEA-γGlu-Decanoyl(10-(4-HOOC-PhO))])EFIAWLVRGRK([AEEA-AEEA-γGlu-Decanoyl(10-(4-HOOC-PhO))])	< 600	≤ 1000
HAEGTFTSDVSSYLEGQAAK([AEEA-AEEA-γGlu-Decanoyl(10-(4-HOOC-PhO))])EFIEWLVRGRK([AEEA-AEEA-γGlu-Decanoyl(10-(4-HOOC-PhO))])	< 600	≤ 1000
HAEGTFTSDVSSYLEGQAAK([γGlu-AEEA-AEEA-Decanoyl(10-(4-HOOC-PhO))])EFIAHLVQGRK([γGlu-AEEA-AEEA-Decanoyl(10-(4-HOOC-PhO))]) (also called Chem. 55)	< 600	≤ 1000
HAEGTFTSDVSSYLEGQAAK([AEEA-AEEA-γGlu-8‑(4-carboxyphenoxy)octanoyl])EFIAWLVRGGK([AEEA-AEEA-γGlu-8‑(4-carboxyphenoxy)octanoyl])	< 600	≤ 1000
HAEGTFTSDVSSYLEGQAAK([AEEA-AEEA-γGlu-Decanoyl(10-(4-HOOC-PhO))])EFIAHLVQGRK([AEEA-AEEA-γGlu-Decanoyl(10-(4-HOOC-PhO))]) (also called Chem. 52)	< 600	≤ 1000
HAEGTFTSDVSSYLEGQAAK([AEEA-AEEA-γGlu-C14 diacid])EFIAHLVQGRK([AEEA-AEEA-γGlu-C14 diacid]) (also called Chem. 53)	< 600	≤ 1000
HAEGTFTSDVSSYLEGQAAK([γGlu-AEEA-AEEA-C14 diacid])EFIAWLVRGRK([γGlu-AEEA-AEEA-C14 diacid])	< 600	≤ 1000
HXEGTFTSDVSSYLEGQAAKEFIAHLVQGRK (Aib at 8; Lys26 and Lys37 each acylated at the epsilon-amino group with 10-(4-carboxyphenoxy)decanoyl-gammaGlu-OEG-OEG (GLP-1(7-37) numbering, His = 7), also called Chem. 36)	< 600	≤ 1000
H[Aib]GGTFTSDVSSYLEGQAAK([AEEA-AEEA-γGlu-Decanoyl(10-(4-HOOC-PhO))])EFIAWLVRGRK([AEEA-AEEA-γGlu-Decanoyl(10-(4-HOOC-PhO))])	< 600	≤ 1000
HXEGTFTSDVSSYLEGQAAKEFIAHLVQGRK (Aib at 8; Lys26 and Lys37 each acylated at the epsilon-amino group with 11-carboxyundecanoyl-gammaGlu-OEG-OEG (GLP-1(7-37) numbering, His = 7), also called Chem. 40)	< 600	≤ 1000
H[Aib]EGTFTSDVSSYLEGRAAK([AEEA-AEEA-γGlu-Decanoyl(10-(4-HOOC-PhO))])EFIAWLVRGRK([AEEA-AEEA-γGlu-Decanoyl(10-(4-HOOC-PhO))])	< 600	≤ 1000
{2,2‑dimethyl‑3‑oxo‑3‑(pyridin-2-ylmethylamino)propanoyl}-EGTFTSDVSSYLEGQAAK([AEEA-AEEA-γGlu-Decanoyl(10-(4-HOOC-PhO))])EFIAWLVRGRK([AEEA-AEEA-γGlu-Decanoyl(10-(4-HOOC-PhO))]) (also called Chem. 60) [N{9}-[2,2-dimethyl-3-oxo-3-(pyridin-2-ylmethylamino)propanoyl], …]	< 600	≤ 1000
{Malonyl(2,2-Me2,histaminyl)}-EGTFTSDVSSYLEGQAAK([AEEA-AEEA-γGlu-Decanoyl(10-(4-HOOC-PhO))])EFIAWLVRGRK([AEEA-AEEA-γGlu-Decanoyl(10-(4-HOOC-PhO))]) (also called Chem. 42)	< 600	≤ 1000
{Malonyl(2,2-Me2,histaminyl)}-EGTFTSDVSSYLEGQAAK([AEEA-AEEA-γGlu-Decanoyl(10-(4-HOOC-PhO))])EFIAWLVRGRK([AEEA-AEEA-γGlu-Decanoyl(10-(4-HOOC-PhO))])E (also called Chem. 41) [N^9-{2-[2-(1H-Imidazol-4-yl)ethylcarbamoyl]-2-methylpropionyl}, …]	< 600	≤ 1000
HAEGTFTSDVSSYLEGQAAK([AEEA-AEEA-γGlu-Decanoyl(10-(4-HOOC-PhO))])EFIAWLVRGRK([AEEA-AEEA-γGlu-Decanoyl(10-(4-HOOC-PhO))])G (the added Gly38 is therefore written as a second piece)	< 600	≤ 1000
HAEGTFTSDVSSYLEGQAAK([AEEA-AEEA-γGlu-Decanoyl(10-(4-HOOC-PhO))])EFIAWLVRGRK([AEEA-AEEA-γGlu-Decanoyl(10-(4-HOOC-PhO))])E (also called Chem. 65)	< 600	≤ 1000
XAEGTFTSDVSSYLEGQAAKEFIAWLVRGRK (Imp (imidazopropionic acid, des-amino histidine) at 7; Lys26 and Lys37 each acylated at the epsilon-amino group with 10-(4-carboxyphenoxy)decanoyl-gammaGlu-OEG-OEG (GLP-1(7-37) numbering))	< 600	≤ 1000
HAEGTFTSDVSSYLEGQAAK([AEEA-AEEA-γGlu-8‑(4-carboxyphenoxy)octanoyl])EFIAWLVRGRK([AEEA-AEEA-γGlu-8‑(4-carboxyphenoxy)octanoyl])	< 600	≤ 1000
{Malonyl(2,2-Me2,histaminyl)}-EGTFTSDVSSYLEGQAAKEFIAWLVRGRK (not fully specified (residues 18, 29); printed as N^9-{2-[2-(1H-Imidazol-4-yl)-ethylcarbamoyl]-2-methylpropionyl}-N^ε26-{2-[2-(2-{2-[2-(2-{(S)-4-[4-(4-tert-Butylphenyl)butyrylamino]-4-carboxybutyrylamino}ethoxy)ethoxy]acetylamino}ethoxy)ethoxy]acetyl}, N^ε37-{2-[2-(2-{2-[2-(2-{(S)-4-[4-(4-tert-Butylphenyl)butyrylamino]-4-carboxybutyrylamino}ethoxy)ethoxy]acetylamino}ethoxy)ethoxy]acetyl}[Arg^34, Lys^37]GLP-1(9-37)-peptide, also called Chem. 46)	< 600	≤ 1000
